Assay [1] concerns the target T1, human CD3 expressed on cells (Jurkat cells; human primary T cells) (human, UniProt P07766 23-207; P04234 22-171; P09693 23-182).
T1 construct: whole, on cells
The assay is described as follows: flow cytometry, 25 nM, human primary T cells. As to the method:
(§1) Purified antibodies were confirmed to bind CD3 expressed on cells using the CytoFLEX S or LX flow cytometers (Beckman Coulter). Antibodies were diluted to 25 nM in FACS buffer (PBS+2% FBS) and were incubated with CD3-expressing cells for 30 minutes at 4° C. […] The median fluorescence intensity of the binding signal for each antibody was normalized to the isotype control to obtain a fold over isotype value. An antibody with a fold over isotype (FOI) of ≥10 was considered to be positive for binding.
(In general: A flow cytometer gives signals particle by particle.)

Assay [2] deals with T2, cynomolgus monkey CD3 expressed on cyno primary T cells (cynomolgus monkey, UniProt Q95LI5 22-198; Q95LI8 22-171; Q95LI7 23-181).
T2 construct: whole, on cells; CD3 complex on purified cynomolgus monkey CD3 pan T cells; also called cyno CD3
T2 sequence (Q95LI5 22-198, chain 1 of 3): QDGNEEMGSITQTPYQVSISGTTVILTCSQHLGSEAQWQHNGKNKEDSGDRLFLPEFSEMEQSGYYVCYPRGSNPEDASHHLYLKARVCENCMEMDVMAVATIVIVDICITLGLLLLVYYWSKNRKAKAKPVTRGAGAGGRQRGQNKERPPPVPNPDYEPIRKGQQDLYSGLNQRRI
T2 sequence (Q95LI8 22-171, chain 2 of 3): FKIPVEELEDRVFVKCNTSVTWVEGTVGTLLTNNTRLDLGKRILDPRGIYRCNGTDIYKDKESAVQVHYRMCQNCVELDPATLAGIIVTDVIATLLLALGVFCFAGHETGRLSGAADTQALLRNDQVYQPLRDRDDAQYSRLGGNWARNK
T2 sequence (Q95LI7 23-181, chain 3 of 3): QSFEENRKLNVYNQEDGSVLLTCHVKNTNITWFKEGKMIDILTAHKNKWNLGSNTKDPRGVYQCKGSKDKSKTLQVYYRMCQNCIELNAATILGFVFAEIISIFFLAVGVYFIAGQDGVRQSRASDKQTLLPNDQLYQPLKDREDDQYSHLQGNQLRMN
As to the kind of experiment: flow cytometry, cyno primary T cells. The method, boiled down:
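Binding readout: MFI divided by isotype-control MFI (fold over isotype), positive at ≥10. Cells were stained with 25 nM antibody, 30 min, 4° C, in PBS/2% FBS before flow cytometry.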

The target in assay [3] is T1, human CD3 expressed on cells (Jurkat …). As to the kind of experiment: flow cytometry, 25 nM, Jurkat cells. As to the method:
as §1

T1 sequence (P07766 23-207, chain 1 of 3): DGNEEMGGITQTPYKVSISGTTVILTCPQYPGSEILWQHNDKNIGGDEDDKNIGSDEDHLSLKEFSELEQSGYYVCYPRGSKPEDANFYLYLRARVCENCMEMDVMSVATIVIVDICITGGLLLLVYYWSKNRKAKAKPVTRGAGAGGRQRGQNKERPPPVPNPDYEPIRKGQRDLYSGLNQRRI
T1 sequence (P04234 22-171, chain 2 of 3): as the sequence (Q95LI8 22-171, chain 2 of 3) above, with V5I, K15N, V20I, T32S, N33D, N34I, A64T, N74S, L83V, R141H counted along it
T1 sequence (P09693 23-182, chain 3 of 3): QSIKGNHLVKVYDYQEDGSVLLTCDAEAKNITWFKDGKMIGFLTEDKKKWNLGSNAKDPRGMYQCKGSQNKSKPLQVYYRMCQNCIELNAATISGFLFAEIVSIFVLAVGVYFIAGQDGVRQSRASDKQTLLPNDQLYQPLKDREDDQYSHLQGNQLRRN

B1: mAb 228 (antibody, V domains shown)
VH: EVQLLESGGGLVQPGGSLRLSCAASGFTFSNYAMNWVRQAPGKGLEWVSTISGSGGGKYYADSVKGRFTISRDNSKNTLYLHMNSLRAEDTAVYYCAKDPVQDRYYFYYYYMDVWGKGTTVTVSS
VL: EIVLTQSPDFQSVTPKEKVTITCRASQSIGSSLHWYQQKPDQSPKLLIKYASQSISGVPSRFSGSGSGTDFTLTINSLEAEDAAAYYCHQSSSLPHTFGQGTKLEIK
notes: VH/VL only
As to B1, the “Binding (FOI)” value in assay [1] is 105 FOI; in assay [3] it was 159 FOI. Also, the binding result in assay [2] is “no binding (tested: FOI <10 (FOI >=10 = positive); 25 nM)”.

B2: mAb 229 (antibody, V domains shown)
VH: QEQLVESGGGVVQPGRSLRLSCAASGFTFSSYGMHWVRQAPGKGLEWVAIIYYNGKKKDYADSVKGRFTISRDNSKNTLYLQMNSLRAEDTAVYYCARGLGYNWFDPWGQGTLVTVSS
VL: EIVLTQSPDFQSVTPKEKVTITCRASQSIGSSLHWYQQKPDQSPKLLIKYASQSFSGVPSRFSGSGSGTDFTLTINSLEAEDAATYYCHQSSSLPYTFGQGTKLEIK
notes: VH/VL only
For the molecule B2, the “Binding (FOI)” value was found to be 250 FOI in assay [1] and 180 FOI in assay [3]. For the same molecule, in assay [2], the binding result was “no binding (tested: FOI <10 (FOI >=10 = positive); 25 nM)”.

B3: mAb 240 (antibody, V domains shown)
VH: QGKLVESGGGVVQPGRSLRLSCVASGFTFSGYGMHWVRQAPNKGLEWVAIIYYDGKNKYYADSVKGRFTISRDNSKNTLYLQLNSLRAEDTAVYYCVRGPGYNWFDPWGQGTLVTVSS
VL: EIVLTQSPDFQSVTPKEKVTITCRASQNIGSSLHWYQQKPDQSPKLLIKHASQSFSGVPSRFSGSGSGTDFTLTINSLEAEDAATYYCHQSSSLPYTFGQGTKLEIK
notes: VH/VL only
As to B3, the “Binding (FOI)” value came to 216 FOI in assay [1] and 177 FOI in assay [3]. Further, in assay [2], the binding result was “no binding (tested: FOI <10 (FOI >=10 = positive); 25 nM)”.

B4: mAb 230 (antibody, V domains shown)
VH: EVQLLESGGGLVQPGGSLRLSCAASGFTFSSYAMSWVRQAPGKGLEWVSSISGSGGSRYYADSVKGRFTISRDNSKNTLYLQMNSLRAEDTAVYYCAKDPVQDRYYFYYYYMDVWGKGTTVTVSS
VL: EIVLTQSPDFQSVTPKEKVTITCRASQSIGSSLHWYQQKPDQSPKLLIKYASQSISGVPSRFSGSGSGTDFTLTINSLEAEDAAAYYCHQSSSLPHTFGQGTKLEIK
notes: VH/VL only
As for B4, the “Binding (FOI)” value stood at 55.3 FOI in assay [1] and 141 FOI in assay [3]. For the same molecule, the binding result in assay [2] is “no binding (tested: FOI <10 (FOI >=10 = positive); 25 nM)”.

B5: mAb 194 (antibody, V domains shown)
VH: QEQLVESGGGVVQPGGSLRLSCAASGFIFSGYGMHWVRQAPGKGLEWVAIIWYNGRKTYYAESVKGRFTISRDNSKNTLSLQMNSLRVEDTAVYYCTAGQGYNWFDPWGQGTLVTVSS
VL: EIVMTQSPATLSVSPGERATLSCRASQSVSSNLAWYQQKPGQAPRLLIYGASTRATGIPARFSGSGSGTEFTLTISSLQSEDFAVYYCQQFNAWPLTFGGGTKMEIK
notes: VH/VL only
For the molecule B5, the “Binding (FOI)” value in assay [1] is 217 FOI; in assay [3], 199 FOI. For the same molecule, in assay [2], the binding result is recorded as “no binding (tested: FOI <10 (FOI >=10 = positive); 25 nM)”.

B6: mAb 220 (antibody, V domains shown)
VH: QEQLVESGGGVVQPGGSLRLSCVASGFTFSGYGMHWVRQAPGKGLEWVAIIWYNGRKTYYAESVKGRFTISRDNSKNTLSLQMNSLRVEDTAVYYCTTGKGYNWFDPWGQGTLVTVSS
VL: EIVMTQSPATLSVSPGERATLSCRASQSVSSNLAWYQQKPGQAPRLLIYGASTRATGIPARFSGSGSGTEFTLTISSLQSEDFAVYYCQQFNAWPLTFGGGTKMEIK
notes: VH/VL only
As for B6, the “Binding (FOI)” value stood at 243 FOI in assay [1] and 181 FOI in assay [3]. In assay [2], the binding result is reported as “no binding (tested: FOI <10 (FOI >=10 = positive); 25 nM)”.

B7: mAb 225 (antibody, V domains shown)
VH: QEQLVESGGGVVQPGGSLRLSCAASGFKFSGYGMHWVRQAPGKGLEWVAIIWYNGRKTYYAESVKGRFTISRDNSKNTLSLQMNRLRVEDTAVYYCTAGQGYNWFDPWGQGTLVTVSS
VL: EIVMTQSPATLSVSPGERATLSCRASQSVSSNLAWYQQKPGQAPRLLIYGASTRATGIPARFSGSGSGTEFTLTISSLQSEDFAVYYCQQFNAWPLTFGGGTKMEIK
notes: VH/VL only
Consider B7, for which the “Binding (FOI)” value worked out at 267 FOI in assay [1] and 210 FOI in assay [3]. Moreover, the binding result in assay [2] is on record as “no binding (tested: FOI <10 (FOI >=10 = positive); 25 nM)”.

B8: mAb 195 (antibody, V domains shown)
VH: QEQLVESGGGVVQSGRSLRLSCVASGFKFSGYGMHWVRQAPGKGLEWVAIIYYDGKNKYYADSVKGRFTISRDNSKNTLYLQMNSLRAEDTAVYYCTRGAGYNWFDSWGQGTLVTVSS
VL: EIVMTQSPATLSVSPGERATLSCRASQSVRNNLAWYQQKPGQAPRLLIYGVSTRATAFPARFSGSGSGTEFTLTISSLQSEDFAVYYCQQYNNWPLTFGGGTKVEIK
notes: VH/VL only
Take B8: the “Binding (FOI)” value is 226 FOI in assay [1] and 170 FOI in assay [3]. Besides, the binding result in assay [2] is “no binding (tested: FOI <10 (FOI >=10 = positive); 25 nM)”.

B9: mAb 219 (antibody, V domains shown)
VH: QEQLVESGGGVVQPGGSLRLSCAASGFMFSGYGMHWVRQAPGKGLEWVAIIWYNGRKTYYTESVKGRFTISRDNSKNTLSLQMNSLRVEDTAVYYCTAGQGYNWFDPWGQGTLVTVSS
VL: EIVMTQSPATLSVSPGERATLSCRASQSVSSNLAWYQQKPGQAPRLLIYGASTRATGIPARFSGSGSGTEFTLTISSLQSEDFAVYYCQQFNAWPLTFGGGTKMEIK
notes: VH/VL only
As to B9, the “Binding (FOI)” value in assay [1] worked out at 245 FOI; in assay [3], 175 FOI. In addition, the binding result in assay [2] was “no binding (tested: FOI <10 (FOI >=10 = positive); 25 nM)”.

B10: mAb 213 (antibody, V domains shown)
VH: QEQLVESGGGVVQPGGSLRLSCAASGFTFSGYGMHWVRQAPGKGLEWVAIIWYNGRKTYYAESVKGRFTISRDNSKNTLSLQMNSLRVEDTAVYYCTTGKGYNWFDPWGQGTLVTVSS
VL: EIVMTQSPATLSVSPGERATLSCRASQSVSSNLAWYQQKPGQAPRLLIYGASTRATGIPARFSGSGSGTEFTLTISSLQSEDFAVYYCQQFNAWPLTFGGGTKMEIK
notes: VH/VL only
For the molecule B10, the “Binding (FOI)” value was 248 FOI in assay [1] and 192 FOI in assay [3]. In addition, the binding result in assay [2] is listed as “no binding (tested: FOI <10 (FOI >=10 = positive); 25 nM)”.

B11: mAb 196 (antibody, V domains shown)
VH: QEQLVESGGGVVQSGRSLRLSCVASGFKFSGYGMHWVRQAPGKGLEWVAIIYYDGKNKYYADSVKGRFTVSRDNSKNTLYLQMNSLRAEDTAVYYCTRGAGYNWFDSWGQGTLVTVSS
VL: EIVMTQSPATLSVSPGERATLSCRASQSVRNNLAWYQQKPGQAPRLLIYGVSTRATAFPARFSGSGSGTEFTLTISSLQSEDFAVYYCQQYNNWPLTFGGGTKVEIK
notes: VH/VL only
For B11, the “Binding (FOI)” value came out at 224 FOI in assay [1] and 172 FOI in assay [3]. In addition, the binding result in assay [2] is “no binding (tested: FOI <10 (FOI >=10 = positive); 25 nM)”.

B12: mAb 212 (antibody, V domains shown)
VH: EVQLLESGGGLVQPGGSLRLSCAASGFTFSNYAMNWVRQAPGKGLEWVSAISGSRSNTYYADSVKGRFTISRDNSKNTLYLQMNSLRAEDTGVYYCAKGAYSKYPYYYYMDVWGKGTTVTVSS
VL: EIVMTQSPATLSLSPGERATLSCRASQSVSSSYLSWYQQKPGQAPRLLIYGASTRAIGIPARFSGSGSGTDFTLTISSLQAEDFAVYYCQQDDNLPWTFGQGTKVEIK
notes: VH/VL only
As for B12, the “Binding (FOI)” value was 160 FOI in assay [1] and 150 FOI in assay [3]. In addition, the binding result in assay [2] was “no binding (tested: FOI <10 (FOI >=10 = positive); 25 nM)”.

B13: mAb 214 (antibody, V domains shown)
VH: EVQLLESGGGLVQPGGSLRLSCAASGFTFSNYAMNWVRQAPGKGLEWVSAISGSRSNTYYADSVKGRFTISRDNSKNTLYLQMNSLRAEDTAVYYCAKGAYSKYPYYYYMDVWGKGTTVTVSS
VL: EIVMTQSPATLSLSPGERATLSCRASQSVSSSYLSWYQQKPGQAPRLLIYGASTRAIGIPARFSGSGSGTDFTLTISSLQAEDFAVYYCQQDDNLPWTFGQGTKVEIK
notes: VH/VL only
As to B13, the results for the “Binding (FOI)” value in assay [1] and in assay [3] were 162 FOI and 150 FOI, respectively. Besides, in assay [2], the binding result is on record as “no binding (tested: FOI <10 (FOI >=10 = positive); 25 nM)”.

B14: mAb 237 (antibody, V domains shown)
VH: EVQLLESGGDLVQPGGSLRLTCAASGFTFRSYAMNWVRQAPGKGLEWVSTISSRGDTTNYADSVKGRFTISRDTSKNTLYLQMDNLRADDTAVYYCSKMFSYYYYYMDVWGKGTTVTVSS
VL: SYELTQPLSVSVALGQTARITCGGNNIGSKDVHWYQQKPGQAPVLVIYRDSNRPSGIPERFSGSNSGNTATLTISRAQAGDEADYYCQVWDSRTAVFGGGTQLTAL
notes: VH/VL only
As to B14, the figures for the “Binding (FOI)” value in assay [1] and in assay [3] were 293 FOI and 217 FOI, respectively. Moreover, in assay [2], the binding result is on record as “no binding (tested: FOI <10 (FOI >=10 = positive); 25 nM)”.

B15: mAb 238 (antibody, V domains shown)
VH: EVQLLESGGDLVQPGGSLRLTCAASGFTFRSYAMNWVRQAPGKGLEWVSTISSRGDTTNYADSVKGRFTISRDTSKNTLYLQMDNLRADDTAVYYCSKMFSYYYYYMDVWGKGTTVTVSS
VL: SYELTQPLSVSVALGQTARITCGGNNIGSKDVHWYQQKPGQAPVLVIYRDSNRPSGIPERFSGSNSGNTATLTISRAQAGDEADYYCQVWDSSTAVFGGGTQLTAL
notes: VH/VL only
Take B15: the entries for the “Binding (FOI)” value in assay [1] and in assay [3] were 266 FOI and 185 FOI, respectively. In addition, the binding result in assay [2] is “no binding (tested: FOI <10 (FOI >=10 = positive); 25 nM)”.

The values above are taken from US20230295310A1 (ABCELLERA BIOLOGICS, published 2023).
